Literature values in patent publication US9307769B2, “Method for increasing plant yield, and yield improving compositions” (Plant Health Care, Inc., priority 2011, dated 2016).
Read-outs that look alike come from different tables or passages of the source.

[1] = HR-eliciting fragments, Table 1
[2] = building block domains for fusion proteins, Table 2

| Substance | pI [1] | pI [2] |
| --- | --- | --- |
| HrpNEch-2: HR-eliciting fragment, E. chrysanthemi, amino acid residues 256-295 (DGWSSPKTDDKSWAKALSKPDDDGMTGASMDKFRQAMGMI; UniProt Q47278 256-295, looked up, fragment) | 4.62 | – |
| HrpNEa-2: HR-eliciting fragment, E. amylovora, amino acid residues 140-176 (QNDDSTSGTDSTSDSSDPMQQLLKMFSEIMQSLFGDG; UniProt Q01099 140-176, looked up, fragment) | 3.17 | – |
| (NN): building block domain, source HrpNEa40-80 (SALGLGGGNQNDTVNQLAGLLTGMMMMMSMMGGGGLMGGGL; UniProt Q01099 40-80, looked up, fragment) | – | 6.78 |
| HrpWPss-1: HR-eliciting fragment, P. syringae, amino acid residues 52-96 (LAATMFVMAPVAHDIQQRVHEHPLELSNADKLQSSLKVVIEPLQR; UniProt Q60236 52-96, looked up, fragment) | 4.32 | – |
| HrpNEch-1: HR-eliciting fragment, E. chrysanthemi, amino acid residues 78-118 (QLGQSFGNGAQGASNLLSVPKSGGDALSKMFDKALDDLLGH; UniProt Q47278 78-118, looked up, fragment) | 5.25 | – |
| (NC): building block domain, source HrpNEa140-180 (QNDDSTSGTDSTSDSSDPMQQLLKMFSEIMQSLFGDGQDGT; UniProt Q01099 140-180, looked up, fragment) | – | 5.01 |
| HrpNEa-1: HR-eliciting fragment, E. amylovora, amino acid residues 43-70 (GLGGGNQNDTVNQLAGLLTGMMMMMSMM; UniProt Q01099 43-70, looked up, fragment) | 3.09 | – |
